Substitutions are numbered along the chain they refer to. Names and notes keep the numbering of the source.
B1: KANK1 WT: human FL-KANK1 tagged with pmCherry (protein, UniProt Q14678 1-1352, looked up)
chain: MAHTTKVNGSASGKAGDILSGDQDKEQKDPYFVETPYGYQLDLDFLKYVDDIQKGNTIKRLNIQKRRKPSVPCPEPRTTSGQQGIWTSTESLSSSNSDDNKQCPNFLIARSQVTSTPISKPPPPLETSLPFLTIPENRQLPPPSPQLPKHNLHVTKTLMETRRRLEQERATMQMTPGEFRRPRLASFGGMGTTSSLPSFVGSGNHNPAKHQLQNGYQGNGDYGSYAPAAPTTSSMGSSIRHSPLSSGISTPVTNVSPMHLQHIREQMAIALKRLKELEEQVRTIPVLQVKISVLQEEKRQLVSQLKNQRAASQINVCGVRKRSYSAGNASQLEQLSRARRSGGELYIDYEEEEMETVEQSTQRIKEFRQLTADMQALEQKIQDSSCEASSELRENGECRSVAVGAEENMNDIVVYHRGSRSCKDAAVGTLVEMRNCGVSVTEAMLGVMTEADKEIELQQQTIESLKEKIYRLEVQLRETTHDREMTKLKQELQAAGSRKKVDKATMAQPLVFSKVVEAVVQTRDQMVGSHMDLVDTCVGTSVETNSVGISCQPECKNKVVGPELPMNWWIVKERVEMHDRCAGRSVEMCDKSVSVEVSVCETGSNTEESVNDLTLLKTNLNLKEVRSIGCGDCSVDVTVCSPKECASRGVNTEAVSQVEAAVMAVPRTADQDTSTDLEQVHQFTNTETATLIESCTNTCLSTLDKQTSTQTVETRTVAVGEGRVKDINSSTKTRSIGVGTLLSGHSGFDRPSAVKTKESGVGQININDNYLVGLKMRTIACGPPQLTVGLTASRRSVGVGDDPVGESLENPQPQAPLGMMTGLDHYIERIQKLLAEQQTLLAENYSELAEAFGEPHSQMGSLNSQLISTLSSINSVMKSASTEELRNPDFQKTSLGKITGNYLGYTCKCGGLQSGSPLSSQTSQPEQEVGTSEGKPISSLDAFPTQEGTLSPVNLTDDQIAAGLYACTNNESTLKSIMKKKDGNKDSNGAKKNLQFVGINGGYETTSSDDSSSDESSSSESDDECDVIEYPLEEEEEEEDEDTRGMAEGHHAVNIEGLKSARVEDEMQVQECEPEKVEIRERYELSEKMLSACNLLKNTINDPKALTSKDMRFCLNTLQHEWFRVSSQKSAIPAMVGDYIAAFEAISPDVLRYVINLADGNGNTALHYSVSHSNFEIVKLLLDADVCNVDHQNKAGYTPIMLAALAAVEAEKDMRIVEELFGCGDVNAKASQAGQTALMLAVSHGRIDMVKGLLACGADVNIQDDEGSTALMCASEHGHVEIVKLLLAQPGCNGHLEDNDGSTALSIALEAGHKDIAVLLYAHVNFAKAQSPGTPRLGRKTSPGPTHRGSFD
modifications: full-length mCherry fusion
notes: human FL-KANK1 tagged with pmCherry
B2: KANK1 L43E: mCherry-KANK1 with point mutation L43E (protein)
chain: B1 chain with L43E
modifications: left off: mCherry, C-terminal, kept
B3: KANK1 F45E: mCherry-KANK1 with point mutation F45E (protein)
chain: B1 chain with F45E
modifications: left off: mCherry, C-terminal, kept
B4: KANK1 V49E: mCherry-KANK1 with point mutation V49E (protein)
chain: B1 chain with V49E
modifications: left off: mCherry, C-terminal, kept
B5: KANK1 L41E: mCherry-KANK1 with point mutation L41E (protein)
chain: B1 chain with L41E
modifications: left off: mCherry, C-terminal, kept

Experiments:
[1] = tested on: GFP–talin1–cBAK; experiment: Mitochondrial targeting system (MTS): recruitment of mCherry–KANK1 by GFP–talin1–cBAK; type: cell-based; details: NIH3T3 fibroblasts and HEK293T cells; fluorescence microscopy colocalization
From the text: To examine the effect of these KANK1 mutations on talin interactions in cells, we next used a mitochondrial targeting system (MTS) which we previously used to screen for defined protein–protein interactions. In this assay, one protein is fused to a small peptide sequence from the pro-apoptotic protein BAK (cBAK) which leads to its insertion into the outer membrane of mitochondria. Proteins that interact with the cBAK-tagged protein will get recruited to mitochondria, and this recruitment can be verified either by visualizing colocalization using fluorescence microscopy (figure 4a) or by purification of mitochondria followed by detection of co-precipitates using biochemistry (figure 4b,c). […] To confirm that the interaction was meditated by the R7 domain, we performed the colocalization assays with truncated talin constructs.
(§1) NIH3T3 mouse fibroblasts and HEK293T human epithelial cells were obtained from the American Type Culture Collection (ATCC). The vinculin null and WT mouse embryonic fibroblasts (MEFs) originate from the Eileen Adamson laboratory. All cells were maintained in Dulbecco's Modified Eagle Medium (DMEM; Sigma) supplemented with 10% fetal bovine serum (FBS, Gibco), 1% L-glutamine (Sigma) and 1% non-essential amino acids (Sigma). Talin1&2 null cells were cultured in DMEM F-12 (Gibco) supplemented with 10% FBS, 1% L-glutamine, 1% non-essential amino acids and […] HEPES (Sigma). All cells were cultured at 37̊C supplied with 5% CO2 and 95% humidity. Transient transfections were performed using Lipofectamine LTX with Plus Reagent (Invitrogen) to NIH3T3 cells, Lipofectamine 2000 (Invitrogen) to talin null cells, and jetPRIME reagent (Polyplus) to MEFs and HEK293T cells, as per the manufacturer's instructions.
(§2) For the construction of mCherry-KANK1, human FL-KANK1 (generous donation from the Bershadsky laboratory) cDNA was tagged in the C-terminal site with pmCherry (Clontech) by restriction digestion. Point mutations (L41E, L43E, F45E and V49E) were introduced in mCherry-KANK1 by site-directed mutagenesis (NEB) using the following oligonucleotides: […]ga[…] and […] for L41E; […]ga[…] and […] for L43E; […]gaa[…] and […] for F45E; […]a[…] and […] for V49E. Generation of GFP–talin1–cBAK and GFP–cBAK was as previously described. G1404L was introduced on GFP–talin1–cBAK by the method above using […]ctt[…] and […]. To generate GFP–talin1 R7DD–cBAK and GFP–talin1 R9DD-cBAK constructs, R7-DD (3555 bp) and R9-DD (2661 bp) were amplified from talin-1 (Mus musculus). Restriction digestion with XhoI and HindIII FastDigest enzymes (Thermo Scientific) was used to linearize GFP–cBAK. DNA assembly was performed to join R7-DD and R9-DD to linearized the GFP–cBAK vector using the NEBuilder HiFi DNA assembly kit (NEB).
(§3) Images of fixed samples in PBS were acquired at room temperature using an Olympus IX83 inverted microscope equipped with a 60×/1.42 PlanApo N oil objective and a QImaging Retiga R6 CCD camera, controlled by Metamorph software. Samples were illuminated using LEDs (UV/Cyan/Green-Yellow/Red, Lumencor) for fluorescence excitation; a Sedat filter set (DAPI/FITC/TRITC/Cy5, Chroma, 89000) was used.

[2] = tested on: focal adhesions of NIH3T3 fibroblasts; experiment: KANK1 localization to focal adhesions (co-expression with GFP–paxillin); type: cell-based, mouse; details: NIH3T3 fibroblasts co-expressing GFP–paxillin
Procedure: as §1, §2, §3

[3] = tested on: talin1-cBAK; experiment: Mitochondria pulldown of KANK1 WT or point mutations, Western blot; type: cell-based; details: HEK293T cells; mitochondrial pulldown, triplicate experiments, normalized to WT; *** p < 0.001 (one-way ANOVA, Dunnett's)
From the text: as §2
For fixed cell imaging, cells were cultured in glass-bottom dishes (IBL) coated with bovine fibronectin (Sigma) at a final concentration of 10 µg ml^−1. Samples were fixed in 4% paraformaldehyde (PFA, Sigma), and warmed to 37̊C, for 15 min before being washed three times with PBS. For immunofluorescence staining, samples were permeabilized at room temperature with 0.5% Triton X-100 (Sigma) for 5 min before being washed three times. […]
Protein samples were extracted from cells and mitochondria, respectively, using RIPA lysis buffer (Chromotek) supplemented with protease inhibitors. […] Primary antibody signal was detected using goat anti-mouse IgG conjugated to IRDye 680RD (ab216776, abcam) and goat anti-rabbit IgG conjugated to IRDye 800CW (ab216773, abcam) secondary antibodies, diluted 1 : 15 000, imaged with an Odyssey CLx imaging system (LI-CO Biosciences). […]

[4] = tested on: α/β liprin in NIH3T3 fibroblasts; experiment: α/β liprin localization (CMSC assembly); type: cell-based, mouse; details: NIH3T3 fibroblasts co-transfected with GFP–paxillin and mCherry–KANK1 F45E; immunostaining
Procedure: as §1, with “instructions. […]” for “instructions.”
as §3

Molecule | recruitment of mCherry–KANK1 to mitochondria by GFP–talin1–cBAK [1] | localization of mCherry–KANK1 to FAs / FA belt [2] | relative KANK1 binding to talin1-cBAK (%) [3] | α/β liprin localization [4]
B1 | readily recruits | readily localized to FAs, and predominantly to the typical ‘belt-like’ structure | – | –
B2 | abolishes GFP–talin–cBAK mediated recruitment | abolished localization to FAs and the FA belt | not detected | –
B3 | abolishes GFP–talin–cBAK mediated recruitment | abolished localization to FAs and the FA belt | not detected | loss of α/β liprin from both the adhesion belt and the cellular cortex
B4 | abolishes GFP–talin–cBAK mediated recruitment | abolished localization to FAs and the FA belt | – | –
B5 | abolishes GFP–talin–cBAK mediated recruitment | abolished localization to FAs and the FA belt | not detected | –

— paper PMC10281804, “The structural basis of the talin–KANK1 interaction that coordinates the actin and microtubule cytoskeletons at focal adhesions” (Open Biology, 2023)
